Assay results from patent US20230064703A1.
Each block holds one binder with its values, some of them ahead of it.

How the values were obtained:
[1] = molecular target: human GITR expressed on Cho-K1 cells (human) (UniProt Q9Y5U5); assay: FACS, chimeric antibody on GITR/Cho-K1 cells, geometric mean, 4-parameter fit
[2] = molecular target: human GITR expressed on Cho-K1 cells (human) (UniProt Q9Y5U5); assay: FACS binding assay with GITR/Cho-K1, chimeric antibody
[3] = molecular target: human GITR expressed on Cho-K1 cells (human) (UniProt Q9Y5U5); assay: FACS binding assay with GITR/Cho-K1, humanized antibody

Sequence of human GITR expressed on Cho-K1 cells (human) (Q9Y5U5 26-241): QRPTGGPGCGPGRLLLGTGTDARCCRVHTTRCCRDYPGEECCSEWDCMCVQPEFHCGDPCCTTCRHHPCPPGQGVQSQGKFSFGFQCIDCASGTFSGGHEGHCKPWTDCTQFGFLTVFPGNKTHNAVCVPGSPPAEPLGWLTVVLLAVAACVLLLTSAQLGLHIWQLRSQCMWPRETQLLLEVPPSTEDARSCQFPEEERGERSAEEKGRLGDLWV

EC50 [1]: 0.0566 µg/mL | EC50 [2]: 0.112 µg/mL
B1: chimeric antibody 225H7D12 (human IgG1) (antibody, V domains shown)
VH: QVQLQQSGAEVMKPGASVKLSCKTTGYRFTGYWIEWVKQRPGHGLEWIGEILPGSGVSNNNEKFRDKATFTADTSSNTAYIQLSSLTTDDSAIYYCARKASYYTMDYWGQGTSVTVSS
VL: QIVLTQSPAIMSASLGERVTMTCTASSSVSSFYFHWYQQKPGSSPKLWIYSISNLASGVPTRFSGSGSGTSYSLTISSMEAEDAATYYCHQYHRSPRTFGGGTKLEIKR

EC50 [1]: 0.0443 µg/mL | EC50 [2]: 0.111 µg/mL
B2: chimeric antibody 45F1F3 (human IgG1) (antibody, V domains shown)
VH: DVQLQESGPGLVKPSQSLSLTCTVTGYSITIDYAWNWIRQFPGNKLEWMGYISNSGYTSYNPSLKSRISFTRDTSKNQFFLQLNSVTPEDSATYYCTRSGHYDLFDYWGQGTTLTVSS
VL: DVVMTQAPLTLSVTIGQPASISCKSSQSLFDRDGKTYLSWLLERPGQSPKRLIYLVSNLDSGVPDRFTGSGSGTDFTLKISRVEAEDLGVYYCWQGTHFPYTFGGGTKVEMKR

EC50 [3]: 0.181 µg/mL
B3: humanized antibody 225H7D12 VH1.4 + VL1.2 (antibody, V domains shown)
VH: QVQLVQSGAEVKKPGASVKVSCKTTGYRFTGYWIEWVKQAPGQGLEWIGEILPGSGVSNNNEKFRDRATFTADTSINTAYMELSRLRSDDTAVYYCARKASYYTMDYWGQGTLVTVSS
VL: DIQMTQSPSSLSASVGDRVTITCTASSSVSSFYFHWYQQKPGKAPKLWIYSISNLASGVPSRFSGSGSGTSYTLTISSLQPEDFATYYCHQYHRSPRTFGGGTKLEIK
